B2: Purified recombinant HCV envelope glycoprotein E2 (Ala 384-Lys 715) (other)
chain: ETHVTGGSAGHTVSGFVSLLAPGAKQNVQLINTNGSWHLNSTALNCNDSLNTGWLAGLFYHHKFNSSGCPERLASCRPLTDFDQGWGPISYANGSGPDQRPYCWHYPPKPCGIVPAKSVCGPVYCFTPSPVVVGTTDRSGAPTYSWGENDTDVFVLNNTRPPLGNWFGCTWMNSTGFTKVCGAPPCVIGGAGNNTLHCPTDCFRKHPDATYSRCGSGPWITPRCLVDYPYRLWHYPCTINYTIFKIRMYVGGVEHRLEAACNWTRGERCDLEDRDRSELSPLLLTTTQWQVLPCSFTTLPALSTGLIHLHQNIVDVQYLYGVGSSIASWAIK
notes: also called HCV E2; HCV-E2

Legend:
[1] = biological target: T1, apoprotein B (apoB100), delipidized protein (human, UniProt P04114 28-4563); assay: flow cytometry on MOLT-4 cells, cell-bound apoB detected with goat polyclonal antibody
T1 construct: also called apo-B delipidized protein; apoprotein apoB100

[2] = biological target: T1, apoprotein B (apoB100), delipidized …; assay: flow cytometry on MOLT-4 cells incubated with E2, apo-B delipidized protein and E2/apoB; cell-bound E2 detected with antibody 108
[3] = biological target: B2; assay: flow cytometry, recombinant E2 on mouse 3T3 cells expressing only murine CD81

T1 sequence (P04114 28-4563 limits assumed): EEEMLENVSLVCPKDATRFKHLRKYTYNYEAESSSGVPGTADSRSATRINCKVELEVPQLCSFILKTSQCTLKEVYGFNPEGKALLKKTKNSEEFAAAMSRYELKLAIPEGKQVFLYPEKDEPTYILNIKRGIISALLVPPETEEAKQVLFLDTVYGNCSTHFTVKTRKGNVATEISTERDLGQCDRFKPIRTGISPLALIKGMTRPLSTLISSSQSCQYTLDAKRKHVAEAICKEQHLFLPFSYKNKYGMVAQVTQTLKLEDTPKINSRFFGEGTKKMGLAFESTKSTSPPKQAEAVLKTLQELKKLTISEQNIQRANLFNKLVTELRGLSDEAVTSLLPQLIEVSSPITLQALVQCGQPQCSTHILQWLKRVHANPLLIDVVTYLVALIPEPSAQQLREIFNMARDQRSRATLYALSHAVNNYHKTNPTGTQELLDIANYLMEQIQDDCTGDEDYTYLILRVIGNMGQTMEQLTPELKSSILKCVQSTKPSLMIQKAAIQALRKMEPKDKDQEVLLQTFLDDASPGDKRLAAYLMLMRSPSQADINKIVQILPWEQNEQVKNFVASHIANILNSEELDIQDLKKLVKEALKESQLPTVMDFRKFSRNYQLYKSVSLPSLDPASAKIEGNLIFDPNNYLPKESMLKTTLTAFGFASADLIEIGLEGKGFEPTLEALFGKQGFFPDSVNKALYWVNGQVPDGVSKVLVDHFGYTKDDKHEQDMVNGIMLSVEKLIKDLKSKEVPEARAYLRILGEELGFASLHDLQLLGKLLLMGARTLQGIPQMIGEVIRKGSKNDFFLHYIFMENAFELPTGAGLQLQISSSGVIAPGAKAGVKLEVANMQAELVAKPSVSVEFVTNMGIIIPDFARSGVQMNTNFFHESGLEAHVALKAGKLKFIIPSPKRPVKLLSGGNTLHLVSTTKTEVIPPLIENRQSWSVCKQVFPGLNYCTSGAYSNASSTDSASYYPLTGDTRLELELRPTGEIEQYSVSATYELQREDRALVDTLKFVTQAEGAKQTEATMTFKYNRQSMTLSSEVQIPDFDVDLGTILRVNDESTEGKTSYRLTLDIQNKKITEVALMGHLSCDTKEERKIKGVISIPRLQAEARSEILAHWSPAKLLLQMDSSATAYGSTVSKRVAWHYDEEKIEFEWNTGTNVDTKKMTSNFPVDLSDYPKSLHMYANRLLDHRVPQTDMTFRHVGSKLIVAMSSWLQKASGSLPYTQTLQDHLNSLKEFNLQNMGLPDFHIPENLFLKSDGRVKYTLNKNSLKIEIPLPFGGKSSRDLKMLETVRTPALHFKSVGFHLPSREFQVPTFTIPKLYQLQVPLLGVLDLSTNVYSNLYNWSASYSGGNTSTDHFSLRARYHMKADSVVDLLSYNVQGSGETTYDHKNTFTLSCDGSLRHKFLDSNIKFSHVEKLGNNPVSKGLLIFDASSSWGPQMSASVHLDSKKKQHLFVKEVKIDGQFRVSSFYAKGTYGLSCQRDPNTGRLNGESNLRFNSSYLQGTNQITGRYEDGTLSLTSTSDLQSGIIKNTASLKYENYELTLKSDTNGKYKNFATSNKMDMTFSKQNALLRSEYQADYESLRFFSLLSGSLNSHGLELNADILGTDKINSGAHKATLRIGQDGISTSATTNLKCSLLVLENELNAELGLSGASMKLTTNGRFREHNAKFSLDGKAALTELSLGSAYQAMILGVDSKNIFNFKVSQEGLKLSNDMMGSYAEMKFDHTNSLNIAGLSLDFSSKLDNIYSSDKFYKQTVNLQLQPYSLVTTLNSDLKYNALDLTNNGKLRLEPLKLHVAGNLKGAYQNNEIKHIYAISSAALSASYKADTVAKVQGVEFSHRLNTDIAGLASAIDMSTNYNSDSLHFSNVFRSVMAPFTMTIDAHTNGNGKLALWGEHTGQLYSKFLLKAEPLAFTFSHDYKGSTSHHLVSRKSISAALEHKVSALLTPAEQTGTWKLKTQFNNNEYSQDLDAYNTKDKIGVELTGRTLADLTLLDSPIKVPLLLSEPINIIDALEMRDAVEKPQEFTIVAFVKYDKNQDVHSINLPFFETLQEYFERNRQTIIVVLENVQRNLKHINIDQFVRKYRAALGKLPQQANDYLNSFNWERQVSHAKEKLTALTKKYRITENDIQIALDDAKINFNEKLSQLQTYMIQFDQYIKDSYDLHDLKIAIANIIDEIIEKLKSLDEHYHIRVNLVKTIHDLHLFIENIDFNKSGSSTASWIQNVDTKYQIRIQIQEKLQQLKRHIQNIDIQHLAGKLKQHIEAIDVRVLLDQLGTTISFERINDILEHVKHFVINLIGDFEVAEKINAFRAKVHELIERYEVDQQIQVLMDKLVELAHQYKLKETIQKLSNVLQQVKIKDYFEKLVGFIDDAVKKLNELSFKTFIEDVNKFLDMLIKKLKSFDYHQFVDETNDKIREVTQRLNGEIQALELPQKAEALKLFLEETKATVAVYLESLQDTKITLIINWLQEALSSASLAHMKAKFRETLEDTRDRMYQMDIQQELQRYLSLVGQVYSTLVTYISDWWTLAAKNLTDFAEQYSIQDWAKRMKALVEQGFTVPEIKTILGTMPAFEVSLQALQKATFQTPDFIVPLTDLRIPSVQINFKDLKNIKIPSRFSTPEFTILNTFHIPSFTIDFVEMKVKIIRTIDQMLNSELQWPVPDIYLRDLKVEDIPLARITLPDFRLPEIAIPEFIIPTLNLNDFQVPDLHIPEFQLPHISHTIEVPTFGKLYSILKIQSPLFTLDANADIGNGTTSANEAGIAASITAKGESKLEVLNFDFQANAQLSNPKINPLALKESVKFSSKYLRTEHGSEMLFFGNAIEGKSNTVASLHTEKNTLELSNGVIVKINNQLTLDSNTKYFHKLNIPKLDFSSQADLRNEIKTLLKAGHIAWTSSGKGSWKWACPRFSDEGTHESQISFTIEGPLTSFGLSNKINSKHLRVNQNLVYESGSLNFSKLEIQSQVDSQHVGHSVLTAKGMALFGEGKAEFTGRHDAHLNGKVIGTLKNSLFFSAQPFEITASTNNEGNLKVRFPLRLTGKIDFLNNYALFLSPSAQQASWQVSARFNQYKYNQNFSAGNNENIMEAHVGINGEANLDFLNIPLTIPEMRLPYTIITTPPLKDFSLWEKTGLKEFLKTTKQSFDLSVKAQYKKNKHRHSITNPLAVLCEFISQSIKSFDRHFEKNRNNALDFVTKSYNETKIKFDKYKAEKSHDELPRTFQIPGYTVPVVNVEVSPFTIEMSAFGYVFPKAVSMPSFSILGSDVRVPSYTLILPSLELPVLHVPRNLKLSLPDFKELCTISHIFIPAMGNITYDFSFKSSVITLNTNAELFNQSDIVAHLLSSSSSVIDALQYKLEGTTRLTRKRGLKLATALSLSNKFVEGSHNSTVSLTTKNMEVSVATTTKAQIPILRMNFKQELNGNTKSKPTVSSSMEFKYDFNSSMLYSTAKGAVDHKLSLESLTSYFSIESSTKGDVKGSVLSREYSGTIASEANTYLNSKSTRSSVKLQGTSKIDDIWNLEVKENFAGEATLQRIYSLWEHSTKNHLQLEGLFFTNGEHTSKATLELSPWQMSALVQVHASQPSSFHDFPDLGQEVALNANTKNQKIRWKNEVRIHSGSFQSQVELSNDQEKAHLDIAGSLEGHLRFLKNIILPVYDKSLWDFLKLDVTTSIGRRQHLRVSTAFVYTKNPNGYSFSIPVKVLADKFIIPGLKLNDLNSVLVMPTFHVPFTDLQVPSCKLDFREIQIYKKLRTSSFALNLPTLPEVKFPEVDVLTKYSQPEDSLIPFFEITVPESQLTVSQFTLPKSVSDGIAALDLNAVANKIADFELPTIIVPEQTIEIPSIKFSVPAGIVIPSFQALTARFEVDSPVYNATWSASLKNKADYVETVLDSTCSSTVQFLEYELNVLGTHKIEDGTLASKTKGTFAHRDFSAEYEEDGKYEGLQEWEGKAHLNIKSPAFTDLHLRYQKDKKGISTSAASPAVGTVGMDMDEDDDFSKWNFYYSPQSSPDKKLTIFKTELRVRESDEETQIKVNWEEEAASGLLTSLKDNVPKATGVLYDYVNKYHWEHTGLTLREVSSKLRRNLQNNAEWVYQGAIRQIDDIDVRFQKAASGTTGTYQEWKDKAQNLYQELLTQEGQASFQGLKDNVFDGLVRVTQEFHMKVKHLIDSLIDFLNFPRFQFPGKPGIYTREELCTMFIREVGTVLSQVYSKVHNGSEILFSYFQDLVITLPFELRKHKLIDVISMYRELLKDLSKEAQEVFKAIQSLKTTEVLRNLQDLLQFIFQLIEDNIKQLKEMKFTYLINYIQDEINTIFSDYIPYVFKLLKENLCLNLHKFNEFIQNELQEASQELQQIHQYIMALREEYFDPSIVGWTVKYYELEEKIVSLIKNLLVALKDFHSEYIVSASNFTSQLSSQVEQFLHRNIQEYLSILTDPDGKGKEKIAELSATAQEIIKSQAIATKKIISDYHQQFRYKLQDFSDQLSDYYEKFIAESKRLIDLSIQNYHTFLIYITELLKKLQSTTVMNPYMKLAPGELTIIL

B1: human low density lipoprotein receptor (LDLr) on MOLT-4 cells (receptor)
chain: not shown
notes: whole, on cells; also called human LDLr; hLDLr
[1]
  binding result: binds

## B2
[2]
  binding result: no binding

B3: murine CD81 on parental (control) mouse 3T3 cells (receptor, UniProt P35762 1-236, looked up)
chain: MGVEGCTKCIKYLLFVFNFVFWLAGGVILGVALWLRHDPQTTSLLYLELGNKPAPNTFYVGIYILIAVGAVMMFVGFLGCYGAIQESQCLLGTFFTCLVILFACEVAAGIWGFVNKDQIAKDVKQFYDQALQQAVMDDDANNAKAVVKTFHETLNCCGSNALTTLTTTILRNSLCPSGGNILTPLLQQDCHQKIDELFSGKLYLIGIAAIVVAVIMIFEMILSMVLCCGIRNSSVY
notes: whole, on cells; also called control 3T3 cells
[3]
  binding result: no binding
